Test results: patent publication US20150183864A1 (KOREA ADVANCED INSTITUTE OF SCIENCE AND TECHNOLOGY KAIST, published 2015)

B1: VEGF-A165 (produced from CHO cell) (ligand, UniProt P15692-4 27-191, looked up)
chain: APMAEGGGQNHHEVVKFMDVYQRSYCHPIETLVDIFQEYPDEIEYIFKPSCVPLMRCGGCCNDEGLECVPTEESNITMQIMRIKPHQGQHIGEMSFLQHNKCECRPKKDRARQENPCGPCSERRKHLFVQDPQTCKCSCKNTDSRCKARQLELNERTCRCDKPRR

Tests used:
[1] = biological target: VEGF-A165 (produced from CHO cell) (UniProt P15692); test: SPR, BIAcore 3000, VEGF-A immobilized on CM5 chip
[2] = biological target: T1, TNFR2-Fc (also known as Etarnercept, U.S. Pat. No. 5,447,851) (human, UniProt P20333 23-257); test: ELISA, VEGF-A coated on the plate, Fc fusion protein 0.01-10 nM, detection with anti-human Fc-HRP, OD 415
T1 construct: range 23-257; The ELISAs and photograph assays name TNFR2-Fc; the SPR and MTT assays name ENBREL®; also called TNFR2-Fc (1-257); ENBREL®; not shown: Fc of human IgG
T1 sequence (looked up): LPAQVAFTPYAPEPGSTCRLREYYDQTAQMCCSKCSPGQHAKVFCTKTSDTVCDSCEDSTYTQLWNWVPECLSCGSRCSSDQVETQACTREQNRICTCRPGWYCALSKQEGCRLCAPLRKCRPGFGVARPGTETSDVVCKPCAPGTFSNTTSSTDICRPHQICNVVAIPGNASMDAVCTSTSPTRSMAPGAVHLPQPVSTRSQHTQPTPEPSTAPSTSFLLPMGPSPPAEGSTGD
Description: After washing the plate 3 times with each 400 μl of PBS, a blocking was performed with the blocking solution (1% BSA in 100 μl PBS) at 37° C. for 2 hour. […] After washing the plate 3 times with each 400 μl of PBS, 50 μl of 3,3′,5,5′-tetramethylbenzidine (TMB) solution (Sigma-Aldrich T0440) was added into the plate, and were incubated at room temperature for 10 min.

Row | Molecule | Kd [1] [pM] | binding result [2]
1 | VEGF-Trap (Fc fusion) | 1.35 | –
2 | B1 | – | no binding (tested: 10 nM)
